Where a chain is given by its changes, count along the chain named. Names may count otherwise.
B1: IgG1-F551 (antibody)
heavy: QVQLQESGPGLVKPSETLSLTCAVSGHSISHDHAWSWVRQPPGEGLEWIGFISYSGITNYNPSLQGRVTISRDNSKNTLYLQMNSLRAEDTAVYYCARSLARTTAMDYWGEGTLVTVSSASTKGPSVFPLAPSSKSTSGGTAALGCLVKDYFPEPVTVSWNSGALTSGVHTFPAVLQSSGLYSLSSVVTVPSSSLGTQTYICNVNHKPSNTKVDKKVEPKSCDKTHTCPPCPAPELLGGPSVFLFPPKPKDWLMISRTVEVTCVVVDVSHEDPEVKFNWYVDGVEVHNAKTKPREEQYNSTYRVVSVLQVLHQDWLNGKEYKCKVSNKALPAPIEKTISKAKGQPREPQVYTLPPSRDELTKNQVSLTCLVKGFYPSDIAVEWESNGQPENNYKTTPPVLDSDGSFFLYSKLTVDKSRWQQGNVFSCSVLHEALHYHYTQKSLSLSP
light: not shown
notes: EU numbering; copies: 2 + 2
B2: IgG1-F600 (antibody)
heavy: B1 heavy with W252T, M254Y, T258Q, V259P, Q309T, E384A, L430M
light: not shown
notes: EU numbering; copies: 2 + 2
B3: IgG1-F556 (antibody)
heavy: B1 heavy with W252T, M254Y, V259P, Q313A, L430M, Y436N
light: not shown
notes: EU numbering; copies: 2 + 2
B4: IgG1-F552 (antibody)
heavy: B1 heavy with W252Y
light: not shown
notes: EU numbering; 'N428L' as printed, probably M428L; copies: 2 + 2
B5: IgG1-F569 (antibody)
heavy: B1 heavy with W252T, M254Y, T258Q, V259P, Q309A, Q313H, L430M
light: not shown
notes: EU numbering; copies: 2 + 2
B6: IgG1-F567 (antibody)
heavy: B1 heavy with W252T, M254Y, S256T, V259P, Q309T, L430I
light: not shown
notes: EU numbering; copies: 2 + 2
B7: IgG1-F624 (antibody)
heavy: B1 heavy with S241K, W252T, V259A, N288E
light: not shown
notes: EU numbering; copies: 2 + 2
B8: IgG1-F568 (antibody)
heavy: B1 heavy with W252T, M254Y, T258E, V259P, Q309A, Q313H, L430M
light: not shown
notes: EU numbering; copies: 2 + 2
B9: IgG1-F592 (antibody)
heavy: B1 heavy with W252T, M254Y, S256T, V259P, Q309T, E384A, L430M
light: not shown
notes: EU numbering; copies: 2 + 2
B10: IgG1-F560 (antibody)
heavy: B1 heavy with W252T, M254Y, S256T, V259P, Q309T, V310P, L430M
light: not shown
notes: EU numbering; copies: 2 + 2
B11: IgG1-F564 (antibody)
heavy: B1 heavy with W252T, M254Y, S256T, V259P, Q309T, Q313H, L430M
light: not shown
notes: EU numbering; copies: 2 + 2
B12: IgG1-F561 (antibody)
heavy: B1 heavy with W252T, M254Y, S256T, V259P, Q309A, L430M
light: not shown
notes: EU numbering; copies: 2 + 2
B13: IgG1-F612 (antibody)
heavy: B1 heavy with W252T, M254Y, V259P, Q309P, V310I, L311A, L430M
light: not shown
notes: EU numbering; copies: 2 + 2
B14: IgG1-F595 (antibody)
heavy: B1 heavy with S241K, W252T, M254Y, V259P, Q309T, L430I
light: not shown
notes: EU numbering; copies: 2 + 2
B15: IgG1-F581 (antibody)
heavy: B1 heavy with W252T, M254Y, T258E, V259P, N288E, Q309T, L430M
light: not shown
notes: EU numbering; copies: 2 + 2
B16: IgG1-F566 (antibody)
heavy: B1 heavy with W252T, M254Y, S256T, V259P, Q313A, L430M
light: not shown
notes: EU numbering; copies: 2 + 2
B17: IgG1-F594 (antibody)
heavy: B1 heavy with S241K, W252T, M254Y, T258E, V259P, Q309T, V310P, L430I
light: not shown
notes: EU numbering; copies: 2 + 2
B18: IgG1-F597 (antibody)
heavy: B1 heavy with W252T, M254Y, V259P, Q309T, E384A, P389E, L430M
light: not shown
notes: EU numbering; copies: 2 + 2
B19: IgG1-F620 (antibody)
heavy: B1 heavy with S241K, W252T, M254Y, S256T, V259P, Q309T, L430M
light: not shown
notes: EU numbering; copies: 2 + 2
B20: IgG1-F563 (antibody)
heavy: B1 heavy with W252T, M254Y, S256T, V259P, Q309T, Q313A, L430M
light: not shown
notes: EU numbering; copies: 2 + 2
B21: IgG1-F619 (antibody)
heavy: B1 heavy with S241K, W252T, M254Y, V259P, Q309T, L430M
light: not shown
notes: EU numbering; copies: 2 + 2
B22: IgG1-F630 (antibody)
heavy: B1 heavy with S241K, W252T, M254Y, V259P, V281L, Q309T, V310P, L430M
light: not shown
notes: EU numbering; copies: 2 + 2
B23: IgG1-F584 (antibody)
heavy: B1 heavy with S241K, W252T, M254Y, T258E, V259P, Q309T, V310P, L430M, Y436N
light: not shown
notes: EU numbering; copies: 2 + 2
B24: IgG1-F578 (antibody)
heavy: B1 heavy with W252T, M254Y, V259P, N288E, Q313A, L430M, Y436N
light: not shown
notes: EU numbering; copies: 2 + 2
B25: IgG1-F570 (antibody)
heavy: B1 heavy with W252T, M254Y, S256T, V259P, Q309A, Q313H, L430M
light: not shown
notes: EU numbering; copies: 2 + 2
B26: IgG1-F553 (antibody)
heavy: B1 heavy with W252T, M254Y, V259P, Q309T, Q313A, L430M
light: not shown
notes: EU numbering; copies: 2 + 2
B27: IgG1-F593 (antibody)
heavy: B1 heavy with S241K, W252T, M254Y, S256T, V259P, Q309T, V310P, L430I
light: not shown
notes: EU numbering; copies: 2 + 2
B28: IgG1-F636 (antibody)
heavy: B1 heavy with S241K, W252T, M254Y, V259P, V286K, Q309T, V310P, L430M
light: not shown
notes: EU numbering; copies: 2 + 2
B29: IgG1-F599 (antibody)
heavy: B1 heavy with W252T, M254Y, V259P, Q309T, P389E, L430Y
light: not shown
notes: EU numbering; copies: 2 + 2
B30: IgG1-F633 (antibody)
heavy: B1 heavy with W252T, M254Y, V259P, V284D, Q309T, V310P, L430M
light: not shown
notes: EU numbering; copies: 2 + 2
B31: IgG1-F598 (antibody)
heavy: B1 heavy with W252T, M254Y, V259P, Q309T, D314A, P389E, L430M
light: not shown
notes: EU numbering; copies: 2 + 2
B32: IgG1-F585 (antibody)
heavy: B1 heavy with S241K, W252T, M254Y, V259P, N288E, Q309T, V310P, L430M, Y436N
light: not shown
notes: EU numbering; copies: 2 + 2
B33: IgG1-F559 (antibody)
heavy: B1 heavy with W252T, M254Y, S256T, V259P, N288E, Q309T, L430M
light: not shown
notes: EU numbering; copies: 2 + 2
B34: IgG1-F580 (antibody)
heavy: B1 heavy with W252T, M254Y, V259P, N288E, Q313H, L430M, Y436N
light: not shown
notes: EU numbering; copies: 2 + 2
B35: IgG1-F629 (antibody)
heavy: B1 heavy with W252T, M254Y, V259P, V281L, Q309T, V310P, L430M
light: not shown
notes: EU numbering; copies: 2 + 2
B36: IgG1-F576 (antibody)
heavy: B1 heavy with W252T, M254Y, T258E, V259P, Q313H, L430M, Y436N
light: not shown
notes: EU numbering; copies: 2 + 2
B37: IgG1-F634 (antibody)
heavy: B1 heavy with S241K, W252T, M254Y, V259P, V284D, Q309T, V310P, L430M
light: not shown
notes: EU numbering; copies: 2 + 2
B38: IgG1-F587 (antibody)
heavy: B1 heavy with W252T, M254Y, V259P, N288E, Q309T
light: not shown
notes: EU numbering; copies: 2 + 2
B39: IgG1-F582 (antibody)
heavy: B1 heavy with S241K, W252T, M254Y, V259P, Q309T, V310P, L430M, Y436N
light: not shown
notes: EU numbering; copies: 2 + 2
B40: IgG1-F621 (antibody)
heavy: B1 heavy with S241K, W252T, M254Y, V259P, Q309A, Q313H, L430M
light: not shown
notes: EU numbering; copies: 2 + 2
B41: IgG1-F583 (antibody)
heavy: B1 heavy with S241K, W252T, M254Y, V259P, Q309T, V310P, E384A, L430M, Y436N
light: not shown
notes: EU numbering; copies: 2 + 2
B42: IgG1-F572 (antibody)
heavy: B1 heavy with W252T, M254Y, V259P, Q309A, Q313H, L430I
light: not shown
notes: EU numbering; copies: 2 + 2
B43: IgG1-F623 (antibody)
heavy: B1 heavy with S241K, W252T, M254W, V259P, Q309T, L430M, Y436W
light: not shown
notes: EU numbering; copies: 2 + 2
B44: IgG1-F562 (antibody)
heavy: B1 heavy with W252T, M254Y, S256T, V259P, L430M
light: not shown
notes: EU numbering; copies: 2 + 2
B45: IgG1-F565 (antibody)
heavy: B1 heavy with W252T, M254Y, S256T, V259P, Q309A, Q313A, L430M
light: not shown
notes: EU numbering; copies: 2 + 2
B46: IgG1-F611 (antibody)
heavy: B1 heavy with W252T, M254Y, V259P, V307T, Q309P, V310I, L311A, L430M
light: not shown
notes: EU numbering; copies: 2 + 2
B47: IgG1-F622 (antibody)
heavy: B1 heavy with S241K, W252T, M254Y, T258Q, V259P, Q309T, L430M
light: not shown
notes: EU numbering; copies: 2 + 2
B48: IgG1-F601 (antibody)
heavy: B1 heavy with W252T, M254Y, V259P, N288E, Q309T, V310P, L430M
light: not shown
notes: EU numbering; copies: 2 + 2
B49: IgG1-F577 (antibody)
heavy: B1 heavy with W252T, M254Y, V259P, N288E, Q309A, Q313A, L430M, Y436N
light: not shown
notes: EU numbering; copies: 2 + 2
B50: IgG1-F586 (antibody)
heavy: B1 heavy with S241K, W252T, M254Y, V259P, N288E, Q309T, V310P, L430I, Y436N
light: not shown
notes: EU numbering; copies: 2 + 2
B51: IgG1-F618 (antibody)
heavy: B1 heavy with S241K, W252T, V259P, Q309T, V310F, L430M
light: not shown
notes: EU numbering; copies: 2 + 2
B52: IgG1-F596 (antibody)
heavy: B1 heavy with W252T, M254Y, V259P, Q309T, D314A, E384A, L430Y
light: not shown
notes: EU numbering; copies: 2 + 2
B53: IgG1-F635 (antibody)
heavy: B1 heavy with W252T, M254Y, V259P, V286K, Q309T, V310P, L430M
light: not shown
notes: EU numbering; copies: 2 + 2
B54: IgG1-F571 (antibody)
heavy: B1 heavy with W252T, M254Y, V259P, N288E, Q309A, Q313H, L430M
light: not shown
notes: EU numbering; copies: 2 + 2
B55: IgG1-F625 (antibody)
heavy: B1 heavy with S241K, W252T, V259A
light: not shown
notes: EU numbering; copies: 2 + 2

Target: T1, human FcRn (soluble human FcRn complexed with β2-microglobulin) (human, UniProt P61769 21-119, limits assumed)
T1 construct: also called hFcRn
T1 sequence (chain, as listed by the source limits assumed, chain 1 of 2): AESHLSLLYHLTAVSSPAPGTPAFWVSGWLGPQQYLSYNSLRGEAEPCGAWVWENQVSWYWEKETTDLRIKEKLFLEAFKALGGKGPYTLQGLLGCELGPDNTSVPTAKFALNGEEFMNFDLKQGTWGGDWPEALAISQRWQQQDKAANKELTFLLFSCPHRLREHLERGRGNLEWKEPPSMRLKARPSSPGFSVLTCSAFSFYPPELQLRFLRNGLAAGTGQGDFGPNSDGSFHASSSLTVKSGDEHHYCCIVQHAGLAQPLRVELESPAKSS
T1 sequence (P61769 21-119 limits assumed, chain 2 of 2): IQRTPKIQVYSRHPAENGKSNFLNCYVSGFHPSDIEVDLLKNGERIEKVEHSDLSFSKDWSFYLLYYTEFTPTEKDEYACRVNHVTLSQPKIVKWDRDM
Experiment: SPR, pH 7.0;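 note: antibodies captured on a Protein L sensor chip with human FcRn injected as analyte, KD calculated from fitted association and dissociation rate constants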

| Binder | Kd |
| --- | --- |
| B1 | 120 nM |
| B2 | 280 nM |
| B3 | 1500 nM |
| B4 | 110 nM |
| B5 | 200 nM |
| B6 | 220 nM |
| B7 | 14 nM |
| B8 | 110 nM |
| B9 | 200 nM |
| B10 | 28 nM |
| B11 | 190 nM |
| B12 | 140 nM |
| B13 | 360 nM |
| B14 | 180 nM |
| B15 | 72 nM |
| B16 | 61 nM |
| B17 | 16 nM |
| B18 | 220 nM |
| B19 | 210 nM |
| B20 | 130 nM |
| B21 | 310 nM |
| B22 | 37 nM |
| B23 | 630 nM |
| B24 | 570 nM |
| B25 | 130 nM |
| B26 | 170 nM |
| B27 | 31 nM |
| B28 | 48 nM |

| Binder | Kd |
| --- | --- |
| B29 | 520 nM |
| B30 | 24 nM |
| B31 | 140 nM |
| B32 | 290 nM |
| B33 | 80 nM |
| B34 | 860 nM |
| B35 | 39 nM |
| B36 | 1600 nM |
| B37 | 32 nM |
| B38 | 190 nM |
| B39 | 750 nM |
| B40 | 150 nM |
| B41 | 780 nM |
| B42 | 100 nM |
| B43 | 180 nM |
| B44 | 83 nM |
| B45 | 92 nM |
| B46 | 280 nM |
| B47 | 350 nM |
| B48 | 9.6 nM |
| B49 | 1300 nM |
| B50 | 140 nM |
| B51 | 640 nM |
| B52 | 400 nM |
| B53 | 45 nM |
| B54 | 81 nM |
| B55 | 76 nM |

— patent publication US20200199241A1 (Chugai, published 2020)
